Measured values: a protein production outcome set (Wang et al. 2014)

Assay: label from the status in PepcDB records

Row | Sequence | protein production
1 | ASNTNLIVNYLPQDMTDRELYALFRAIGPINTCRIMRDYKTGYSYGYAFVDFTSEMDSQRAIKVLNGITVRNKRLKVSYARPGGESIKDTNLYVTNLPRTITDDQLDTIFGKYGSIVQKNILRDKLTGRPRGVAFVRYNKREEAQEAISALNNVIPEGGSQPLSVRLA | not failed
2 | EETRTEVEKKNYMNNAEEAKDVLLGVYRTNTLDAMYGYYLSILFNLGTDISQVEGSGNENFRIIPTNSFPTTQSEVQQTWAALYTGIYRANDFLERISNKIGSYTTTDKKLATLYIAEARALRGMFYFELVRRFGNVVLMTSTQMSNQNPATYVQSAPEKVYEYIEDDLLYACDILPYATDDQYRESNDYRFSKGAALGLLTKVYATWAGYPVKDESKWEAAAKTARILVESGKHGLLKDYEQLWKNTCNGTWDPTESLIEISFYSPTVSGNSDPVGRIGKWNGVKTTAIAGVRGSCAANVKVVHTFVLDWREDVSDIRRDLSIANYQYTDTKKSLWVAGASDTDESAAEKDADPTKAQKNKQNYTPAKWDIQKYVTTNSFINNDKSNVNWYFLRYADVLLLYAEALNEWKHGPDAEAYNAINAVRRRGYGNPSNTSACDLPQGLDETSFREAVRKERSYELSFEGHRRQDLIRWGIYYKTVQATAKELGYWWEGTGSPNYSVATYTEEGKHELFPIPQRDMDLCIQFNQNPKW | not failed
3 | MGSVLVDLQIATENIEGLPTEEQIVQWATGAVQPEGNEVEMTVRIVDEAESHELNLTYRGKDRPTNVLSFPFECPDEVELPLLGDLVICRQVVEREASEQEKPLMAHWAHMVVHGSLHLLGYDHIEDDEAEEMESLETQIMQGLGFDDPYLAEK | not failed
4 | MPGPKDLDPSSSPRALLGAELRHAREKSGLSQEELGARLFVSGSFIGQLESGTRRMQPEYARLLDDVLDTEDFFRRNCTASAKSKYPEHFAQAAEAEGTAREIKEYASMLIPGLLQTPAYARAVCRAYQPTAPDDAIEELVTARMERARMLADPTGPVLWAVVDESALRRSTGGPGVMAEALRHLAHLMRENRVIVQVLPFEAGAHPAMQGCVKLMDFADAPSLVYLEGVGTGRVDDDPATVGRYRFYYELLMVAALSTTKSLSLIEKLAQNYAHGDHP | failed
5 | MQNKARKNYIIYVLMLLLFGGLIYVAIEEGDRFSHHAANTLNTVQDGPFAMFLQFMQDNLHHPLTTLLIQIIAVLLMVRLFGYLFSLIGQPGVIGEIVAGIVLGPSVLGLFFPEAFHFLFPVHSLTNLELLSQVGLILFMFVIGMELDFSVLKNKINETLVISHAGILVPFFLGILSSYWIYETYAADHTPFLPFALFIGISMSITAFPVLARIIQERNMTKTPLGTLAIASAANDDVTAWCLLAVVIAISKAGSFASALYSVGLAVAYIAVMFLVVRPFLKKVGEVYANKEAINKTFVAFILLILIISSCLTEIIGIHALFGAFMAGVVMPSNLGFRKVMMEKVEDISLVFFLPLFFAFTGLRTEIGLINSPELWMVCLLLVTVAIVGKLGGCAIAARLVGESWKDSLTVGTLMNTRGLMELVALNIGYEMGVLPPSIFVILVIMALVTTFMTTPLLHLVERFFVHREEKLSLKRKLIFCFGRPESGRSLLSIYDLLFGKQLKKEHVIAAHYTVGTDLNPLDAQHYESESFALLNQRAVELNIQVDNHYRVTDKLVQEMIHFIRKEHPDMLLLGAGSHYRPEMPGTPGAILWLTLFRDKIDDIMEQVKCPVAVFVNRNYREGALVSFVLGGMIDVFLLSYLNIMLQNGHSVRLFLFETDDEEFHQCIDDLLAHYADQIVVVWFAGVEELVTKERDGLLVMSHLSYTKLSEDELVMRELSSLLVIRRNKNKGEKNERLEIG | failed
6 | MASLLQGFEEVQLVKPVGKTVLTVTDSAIRFNKATAEALGFPAYVKVLINDKTRQIAVTPTTAKAGNAIKFSKPEGKQAASVSVKEATFIEAVKAYLTLPEAPEGEIAYQSVNGTAYPESKTVIFDVANATAGTMKLEHHHHHH | not failed
7 | MGRCSHGLREGRRGEPVRDPTPLDRAGCSVLPGGAKLYYSMAFKMHVPPRGSGHIEEPRRLDKALKALKKSRLLDMLEKVDPGFQSLRVFETVHDPLYIKGILAELEAALDSYFIDSDTYISPGTQAALEALAASVEQASEHVAEGGKALVLGRPPGHHAGVAGPGLGAPSLGACLVNAAASLAYRLAGRGLKVLILDFDANHGNGTQEILQALPMGDRLFHLDMHQDWRKSFPWTGEPGVTGDGTALNIVLPEGSGDDIVLALIEGLEPLVNESEPDAVVVSMGFDGYSGDSPLTLTKLTSHTFHALGRLASRYPVAAVLETGFGRGLELGLPAFIAGLLGLGNPVQEEAIKSDEEVWREFLETNKEVVEHG | failed
8 | SSLICSISNEVPEHPCVSPVSNHVYERRLIEKYIAENGTDPINNQPLSEEQLIDIKVAHPIRPKPPSATSIPAILKALQDEWDAVMLHSFTLRQQLQTTRQELSHALYQHDAACRVIARLTKEVTAAREALATLKPQAGLIVPQAVPSSQPSVVGAGEPMDLGELVGMTPEIIQKLQDKATVLTTERKKRGKTVPEELVKPEELSKYRQVASHVGLHSASIPGILALDLCPSDTNKILTGGADKNVVVFDKSSEQILATLKGHTKKVTSVVFHPSQDLVFSASPDATIRIWSVPNASCVQVVRAHESAVTGLSLHATGDYLLSSSDDQYWAFSDIQTGRVLTKVTDETSGCSLTCAQFHPDGLIFGTGTMDSQIKIWDLKERTNVANFPGHSGPITSIAFSENGYYLATAADDSSVKLWDLRKLKNFKTLQLDNNFEVKSLIFDQSGTYLALGGTDVQIYICKQWTEILHFTEHSGLTTGVAFGHHAKFIASTGMDRSLKFYSL | not failed
9 | MVLETPVCSPIDKESSSDDVQLNKPPKKKRKLDVVYPPRDNTSSSSDVKPKVPGYCGVKAIGCNRSDELLAEVALHSYNSQTGTNLELMTVTQVMLQSVAHINYHMILDAFDPANNSLSSIEICLWDAAVKNNEKLRLVTTFCSLEGSGDKGSQWDPNGVDVLYTGVMPKWLDDGALSGSEKLHYYEVNDSDLQENKWLHLYAQVGAYSKWDLGMVKHFPLEIKKVVVQTMEDDIESNLKLKSSNAIFYITFTTSGGVECACIIRQTRNGRPQHMCLEINNVEMDK | failed
10 | MKEDPRIIKTLSKLQKAFVMLLKTYDAGDINVRQISDEAGVTRGAFYSHFSDKKEFVNFTINELVGSLFNSSLKDSVGFVDEVNHKNAHGTNVLSVSNFFDKVAADYQTYTIVLDTEKLPQFTEVLKERLNSEIKTFAEYYGKKVKHDGFPIEVLSSYYVNGLIGMIRMWLDEGMVYTSHYMANAAKKILGTKIQIDSQNIDLSDFFVDLEHHHHHH | not failed
11 | MTFHWKDLTPWRRIKGVAITILYLLFCIWAGPFWLIFLPLIVDYYFFHIIKWGWYKNIRNKTLRIICSWVADIIYCVVAVTFIFAFLFQNFAIPTSSLEKTLLIGDYLFVSKLSYGPRSPMTPLGVPLTHNTMPLTGGKSFSDKPLLPYKRLKGFGHVKEGDLVVFNFPAGDTVAVKQPNPDYYMWKKLVGREELWSNPDFYGEIVYRPVDRRDHYVKRCVGMPGQELSIRNNQIYIDGKEQRNPRNMQLNYLVRMSREMSVDLIDELGISYDDVRAASSEELKASVGSNLIDSASNQPQIIYHLPLTQGMLDKLQAEPSFVKAVEEPTPIGPLYPLEYETGWTRDNYGPIVIPAKGMTVRLTPLNLALYSRCIRNFEGNKLVQKADGTVLINGRPADSYTFKMDYYFMMGDNRHNSADSRYWGFVPEDHIVGKPVFIWLSLNKDKSLFGGKIRFGRMMRTVNAD | failed
12 | MTVANWQVRDLTLILRTGEMQSRLEQARTDFGALLPETVYFQPSAIRLGEFDDEYILTRQELVYVYLREDIARQCALRRHLPSNSSNSGIMATAIPPWLMDARRLNRVMQERCDQGGLVHYYQGPHTNQFFLAIMPSNCFVRFGTDVINNENYGFYARGGNYTEEGEDDDDEMDDEDETGGAETRDSQTGNLINYPIIALGSCHLSALEHHHHHH | not failed
13 | MSHAIQIREAHFPGRAPIDAYGNGGFRFADMSHRGSIICIPSGIYGIDMTGPVPTQEDISRVLEESDQIEVLLIGTGVELLRLPEELRVLLWEKRISSDTMSTGAAVRTFNVLLAEDRAVAALLFAVE | not failed
14 | AKSEMAFAGKGEISPRAITMWDFSWLERRWPGAGYEDWDQVLDELSERGYNAIRIDAYPHLIAENPMKKWLLKEVWNQQDWGSPDMNEVQVQPNLNLFLSKCKERDIKVGLSSWYRLDVDEVCLKLDTPEKLADCWLTILRSIEEDGLLDTILYVDLCNEWPGDSWAPFFAKTYPNVGWGNWYKEESLRWMKTSLEKMRQVYPDMPFLYSFDHGDVKKYEEVDCSFLDLYEHHIWMAQQNGGEFYKLVGYGYNRFLPDDYKNVVKNAERVYRERPGYWQKLLTDKIELMASVARKNRRPLVTTECWGLVDYKDWPLLKWDWVKDLCELGTITAARTGMWVGVATSNFCGPQFAGMWRDVEWHKRLTSIIRSSPLDESLTKNNEVAAKLLKRL | not failed
15 | MERVSERSLSENLRRSDREDGKIIEWEEFDHELTRLWSLSSAMKLATERKQILQPKLESLIQVSTESLRRTNELEEMRQRLEARKLLVDKTSVACKVTEQDVKKKEENLSTEVRSLLVGGTTLSIAKSKLQESNCQLEGESGYAHLKIVTNKLRKRQQFMVSQVSFIYPLKIEAGPSQDQELESFPGGSRLGTKPLSQGSVRILGLPFSMAPFTKMSFFTDKKEVQKSATALGYVAHAVSLIAPYLRVPIRYPLCLGGSKTYIRDYAPYIEPSPSDMSPITTLSQNINFVEFPLFLDGQDTTRAAYAVFLLNKNIEQLLNFVGENSLGPRQVLANLKELIRIIQSPDYIDYL | failed
16 | TLDAGLQRQLEDLALNWKSRLPPRSSLAMVVVDHTDMKVRGWVGSADITDDSRFGHIDMVSAVRSPGSVLKPFIYAMAMDEGLIHPASLLQDVPRRFSDYRPGNFDSGFHGPVSASEALVRSLNLPAVQVLEAYGPKRFAANLRNAGLPLTLPAGAEPNLSLILGGAGARLEDIVAAYSAFARHGKAARLRLKPSDPLTERALMSPGAAWIVRRILAGEAQPVPDASLPQAVPLAWKTGTSYGYRDAWAVGLNARYLIGIWTGRPDGTPVVGQFGFASAVPLLNQVNNLLLARPAMSRGGL | failed
17 | MQPGWMSSRFYQTCDWIWKLAYINLLWLSGTLLGLVVLGFLPATTAMFTVLRKWFTGNPDVAITRTFFQAYKNEFLKINLLGAVLLLGAYILYFNYMYLGTVEGTVHMVLSLGWYAFLILYIITLFYIIPAYVHYNLKLFQYIKTALIIGFVNPLALVTLAISIGLLGYLLYLVPGLIPFFGPSTFALIVMWCANMSFNRVEKKKEKLELAGQN | failed
18 | MAGAGGGNDIQWCFSQVKGAVDDDVAEADIISTVEFNHSGELLATGDKGGRVVIFQQEQENKIQSHSRGEYNVYSTFQSHEPEFDYLKSLEIEEKINKIRWLPQKNAAQFLLSTNDKTIKLWKISERDKRPEGYNLKEEDGRYRDPTTVTTLRVPVFRPMDLMVEASPRRIFANAHTYHINSISINSDYETYLSADDLRINLWHLEITDRSFNIVDIKPANMEELTEVITAAEFHPNSCNTFVYSSSKGTIRLCDMRASALCDRHSKLFEEPEDPSNRSFFSEIISSISDVKFSHSGRYMMTRDYLSVKIWDLNMENRPVETYQVHEYLRSKLCSLYENDCIFDKFECCWNGSDSVVMTGSYNNFFRMFDRNTKRDITLEASRENNKPRTVLKPRKVCASGKRKKDEISVDSLDFNKKILHTAWHPKENIIAVATTNNLYIFQDKVN | failed
